From the RNAGym collection of RNA variant scans (doi:10.1073/pnas.2313332121)

B1: TPR t1 (parent)
chain: GACCAAUCUGCCCUCAGAGCUCGAGAACAUCUUCGGAUGCAGAGGAGGCAGGCUUCGGUGGCGCGAUAGCGCCAACGUCCUCAACCUCCAAUGCAUCCCACCACAUGAUGAUGCCUGAAGAGCCUUGGUUUUUUG

Variants of: B1
Experiment: polymerase ribozyme fitness, log enrichment relative to wild type (log ratio); higher = more active; in vitro selection for triplet polymerase activity
In short: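 The heterodimeric triplet polymerase ribozyme's subunits were each mutagenized into PCR-built libraries and transcribed. Every library was selected once, in triplicate, by annealing with a biotinylated primer, the partner subunit and triplets, incubating frozen at −7 °C, gel-excising extended constructs, capturing on streptavidin beads and running RT-PCR. Input and output libraries were Illumina-sequenced, with genotypes kept only at ≥10 input reads and ≥1 read per output. Fitness, from inverse-variance-weighted replicate averages, is the base-2 logarithm of genotype enrichment over wild-type enrichment.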

Variant | polymerase ribozyme fitness (log ratio)
GACCAAUCUGCCCUCAGAGCUCGAGAACAUCUUCGGAUGCAGAGGAGGCAGGCUUCGGUGGCCCGAUAGCGCCAACGUCCUCAACCUCCAAUGCAUCCCACCACAUGAUGUUGCCUGAAGAACCUUGGUUUUUUG [G63C A111U G122A] | -5.6
GACCAAUCUGCCCUCAGAGCUCGAGAACAUCUUCGGAUGCAGAGGAGGCAGGCUUCGGUGGCGCGAUAGCGCCAAUGUCCUCAACCUCCACUGCAUCCCACCACAUGAUGAUGCCUGAAGAGCCUUGGUUUUUUG [C76U A91C] | -2.38
GACCAAUCUGCCCUCAGAGCUCGAGAACAUCUUCGUAUGCAGAGGAGGCAGGCUUCGGUGGCGCGAUAGCGCCAACGUCCUGAACCUCCAACGCAUCCCACCACAUGAUGAUGCCUGAAGAGCCUUGGUUUUUUG [G36U C82G U92C] | -2.13
GACCAAUCUGCCCUCAGAGCUCGAGAACAUCUUCGGAUGGAGAGGAGGCAGGCUUCGGUGGCGCGAUAGCGCCAACGUCCUCAACGUCCAAUGCAUCCCACCACAUGAUGAUGCCUGAAGAGCCUUGGUUUUUUG [C40G C86G] | -2.86
GACCAAUCUGCCCUCAGAGCUCGAGAACAUCUUCAGAUGCAGAGGAGGCAGGCUUCGGUGGCGCGAUACCGCCAACGUCCUCAACCUCCAAUGCAUCCCACCACAUGAUGAUGCUUGAAGAGCCUUGGUUUUUUG [G35A G69C C115U] | -6.53
GACCAAUCUGCCCUCAGAGAUCGAGAACAUCUUCGGAUGCAGAGGAGGCAGGCUUCGGUGGCGCGAUAUCGCCAACGUCCUCAACCUCCAAUGCAUCCCACCAAAUGAUGAUGCCUGAAGAGCCUUGGUUUUUUG [C20A G69U C104A] | -2.59
GACCAAUCUGCCCUCAGAGCUCGAGAACAUCUUCGGAUGCAGAUGAGGCAGGCUUCGGUGGCGCGAUAGCGCCAACGUCCUCAACCUCCAUUGCAUCCCACCACAUGAUGAUGCCUGAAGAGCCUUGGUUUUUUG [G44U A91U] | -2.13
GACCAAUCUGCCCUCAGAGCUCGAGAACAUCUUCGGAUGCAGAGGAGGCAGGCUUCGGUGGCGCGAUAGCGCCAACGUCCUCAACCUCCAAUGCAUCCCACCACAUGAUGAUGCCUGAUCAGCCUUGGUUUUUUG [A119U G120C] | 1.55
GACCAAUCUGCCCUCAGAGCUCGAGAACAUCUUCGGAUGCCGAGGAGGCAGGCUUCGGUGGCGCGAUAGCGCCAACGUCCUCAACCUCCAAUGCAUCCCACCACAUGAUGAUGACUGAAGAGCCUUGGUUUUUUG [A41C C114A] | -2.37
GACCAAUCUGCCCUCAGAGCUCGAGAACAUCUUCAGAUGCAGAGGAGCCAGGCUUCGGUGGCGCGAUAGCGCCAACGUCCUCAACCUCCAAUGCAUCCCACCACAUGAUGAUGCCUGAAGAGCCUUGGUUUUUUG [G35A G48C] | -4.48
GACCAAUCUGCCCUCAGAGCUCGAGAACAUCUUCGGAUGCAGAGGAGGCAGGCUUCGGUGGCGCGAUAGCGCCAACGUCCUCAACCCCCAAUGCAUCCCACUACAUGAUGAAGCCUGAAGAACCUUGGUUUUUUG [U87C C102U U112A G122A] | -0.872
GACCAAUCUGCCCUCAGAGCUCGAGAACAUCUUCGGAUGCAGAGGAGGCAGGCUUCGGUGGCGCGAUAGCGCCAACGUCCUCAGCCUCCAAUUCAUCCCACCACAUGAUGAUGCCUGAAUAGCCUUGGUUUUUUG [A84G G93U G120U] | -2.23
GACCAAUCUGCCCUCAGAGCUCGAGAACAUCUUCGGAUGCAGCGGAGGCCGGCUUCGGUGGCGCGAUAGCGCCAACGUCCUCAACUUCAAAUGCAUCCCACCACAUGAUGAUGCCUGAAGAGCCUUGGUUUUUUG [A43C A50C C86U C89A] | -4.9
GACCAAUCUGCCCUCAGAGCUCGAGAAAAUCUUCGGAUGCAGAGGAGGCAGGCUUCGGUGUCGCGAUAGCGCCAACGUCCUCAACCUCCAAUGCAUCCCACCACAUGAUGAUGCCUGAAGAGCCUUGGUUUUUUG [C28A G61U] | -3.73
GACCAAUCUGCCCUCAGAGCUCGAGAACAUCUUCGGAUGCAGAGGAGGCAGGCUUCGGUGUCGCGAUAGCGCCAACGCCCUCAACCUCCAAUGCAUCCCACCACAUGAUGAUGCCUGAAGAGCCUUGGUUUUUUG [G61U U78C] | -0.574
GACCAAUCUGCCCUCAGAGCUCGAGAACAUCUUCGGAUGCAGAGGAGGCAGGCUUCGGUGGCGCGAUAUCGCCAACGUCCUCAACCUCCAAUGCAUCCCACCACAUGAUGAUGCCUGAAGAGCCUUGGUUAUUUG [G69U U131A] | -0.175
GACCAAUCGGACCUCAGGGCUCGAGAACAUCUUCGGAUGCUGAGGAGGCAGGCUUCGGUGGCGCGAUAGCGCCAACGGCCUCAACCUCCAAUGCAUCCCACCACAUGAUGAUGCCUGAAGAGCCUUGGUUUUUUG [U9G C11A A18G A41U U78G] | -4.42
GACCAAUCUCCCCUCAGAGCUCGAGAACAUCUUCGGCUGCAGAGGAGGCAGGCUUCGGUGGCGCGAUAGCGCCAACGUCCUCAACCUCCAAUGCAUCCCACCACAUGAUGAUGCCUGAAGAGCCUUGGUUUUUUG [G10C A37C] | -1.41
GACCAAUCUGCCCUCAGAGCUCGAGAACAUCUUCGGAUGCAGAGGAGGCAGGCUUCGGUGGCGCGUUAGCGCCAACGUGCUCAACCUCCAAUGCAUCCCACCACAUGAUGAUGCCUGAAGAGCCUUGGUUUUUUG [A66U C79G] | -4.01
GACCAAUCUGCCCUCAGAGCUCGAGAACAUCUUCGGAUGCAGAGGAGGCAGGCUUCGGUAGCGCGAUAGCGCCAACGUCCUCAACCUCCAAUGCAUCCCAACACAUGAUGAUGCCUGAAGAGCCUUGGUUUUUUG [G60A C101A] | -1.57
GACCGAUCUGCCCUCAGAGCUCGAGAACAUCUUCGGAUGCAGAGGAGGCAGGCUUCGGUGGCGCGAUAGCGCCAACGUCCUCAACCUCCAAUGCAUCCCACCACAAGAUGAUGCCUGAAGAGCCUUGGUUUUUUG [A5G U106A] | 0.687
